Each block holds one sequence with its values, some of them ahead of it.
What was measured:
[1] = biological target: HLA-B*48:01; assay: IEDB peptide-MHC binding, purified MHC/competitive/fluorescence; filed as Kd, often an IC50 or EC50 that approximates it; ≥ and ≤ were set here for values at or beyond the usual limits of such assays; settings: source organism: Vibrio vulnificus YJ016
[2] = biological target: HLA-B*46:01; assay: IEDB peptide-MHC binding, cellular MHC/competitive/fluorescence; ≥ and ≤ were set here for values at or beyond the usual limits of such assays; settings: source organism: Human herpesvirus 4 strain B95-8
[3] = biological target: HLA-B*27:05; assay: IEDB peptide-MHC binding, purified MHC/competitive/fluorescence; ≥ and ≤ were set here for values at or beyond the usual limits of such assays; settings: source organism: hepatitis C virus genotype 1a
[4] = biological target: HLA-A*69:01; assay: IEDB peptide-MHC binding, purified MHC/direct/fluorescence; filed as Kd, often an IC50 or EC50 that approximates it; ≥ and ≤ were set here for values at or beyond the usual limits of such assays
[5] = biological target: HLA-C*07:02; assay: as above
[6] = biological target: HLA-A*02:01; assay: as above
[7] = biological target: HLA-B*15:42; assay: IEDB peptide-MHC binding, purified MHC/competitive/fluorescence; filed as Kd, often an IC50 or EC50 that approximates it; ≥ and ≤ were set here for values at or beyond the usual limits of such assays
[8] = biological target: HLA-B*83:01; assay: as above
[9] = biological target: HLA-B*45:06; assay: as above
[10] = biological target: HLA-B*40:13; assay: as above
[11] = biological target: HLA-A*68:23; assay: as above
[12] = biological target: HLA-B*27:20; assay: as above
[13] = biological target: HLA-A*32:07; assay: as above; settings: source organism: Cryptosporidium parvum Iowa II
[14] = biological target: HLA-A*01:01; assay: IEDB peptide-MHC binding, purified MHC/direct/fluorescence; filed as Kd, often an IC50 or EC50 that approximates it; ≥ and ≤ were set here for values at or beyond the usual limits of such assays; settings: source organism: Escherichia coli
[15] = biological target: HLA-A*11:01; assay: as above; settings: source organism: Escherichia coli
[16] = biological target: HLA-B*27:05; assay: as above; settings: source organism: Escherichia coli
[17] = biological target: HLA-A*31:01; assay: as above; settings: source organism: Escherichia coli
[18] = biological target: HLA-B*58:01; assay: as above; settings: source organism: Escherichia coli
[19] = biological target: HLA-A*26:01; assay: as above; settings: source organism: Escherichia coli
[20] = biological target: HLA-B*07:02; assay: as above
[21] = biological target: HLA-B*15:01; assay: as above
[22] = biological target: HLA-A*30:01; assay: as above; settings: source organism: Escherichia coli
[23] = biological target: HLA-A*03:01; assay: as above; settings: source organism: Escherichia coli
[24] = biological target: HLA-B*40:01; assay: as above; settings: source organism: Escherichia coli
[25] = biological target: HLA-B*08:01; assay: as above; settings: source organism: Escherichia coli
[26] = biological target: HLA-B*73:01; assay: IEDB peptide-MHC binding, purified MHC/competitive/fluorescence; filed as Kd, often an IC50 or EC50 that approximates it; ≥ and ≤ were set here for values at or beyond the usual limits of such assays; settings: source organism: Escherichia coli str. K-12 substr. MG1655
[27] = biological target: HLA-C*12:03; assay: IEDB peptide-MHC binding, purified MHC/direct/fluorescence; filed as Kd, often an IC50 or EC50 that approximates it; ≥ and ≤ were set here for values at or beyond the usual limits of such assays
[28] = biological target: HLA-C*06:02; assay: IEDB peptide-MHC binding, purified MHC/competitive/fluorescence; filed as Kd, often an IC50 or EC50 that approximates it; ≥ and ≤ were set here for values at or beyond the usual limits of such assays; settings: source organism: Homo sapiens
[29] = biological target: HLA-C*14:02; assay: as above
[30] = biological target: HLA-B*51:01; assay: IEDB peptide-MHC binding, purified MHC/direct/fluorescence; filed as Kd, often an IC50 or EC50 that approximates it; ≥ and ≤ were set here for values at or beyond the usual limits of such assays; settings: source organism: Salmonella enterica
[31] = biological target: HLA-C*06:02; assay: as above
[32] = biological target: HLA-C*15:02; assay: as above
[33] = biological target: HLA-B*46:01; assay: IEDB peptide-MHC binding, purified MHC/competitive/fluorescence; filed as Kd, often an IC50 or EC50 that approximates it; ≥ and ≤ were set here for values at or beyond the usual limits of such assays; settings: source organism: Salmonella enterica subsp. enterica serovar Typhi
[34] = biological target: HLA-A*29:02; assay: as above
[35] = biological target: HLA-A*32:15; assay: as above; settings: source organism: Salmonella enterica subsp. arizonae serovar 62:z4,z23:-
[36] = biological target: HLA-A*01:01; assay: as above; settings: source organism: Homo sapiens
[37] = biological target: HLA-C*04:01; assay: as above; settings: source organism: Homo sapiens
[38] = source organism: Cryptosporidium parvum
[39] = source organism: Cryptosporidium parvum Iowa II
[40] = source organism: Escherichia coli
[41] = source organism: Salmonella enterica subsp. enterica serovar Typhi str. CT18
[42] = source organism: Salmonella enterica subsp. enterica serovar Typhi
[43] = source organism: Salmonella enterica subsp. arizonae serovar 62:z4,z23:-

Sequence: DEHPWQPML
Kd [1]: ≥ 20000 nM

Sequence: FTYPVLEEM
IC50 [2]: 10000 nM

Sequence: GGATICGKY
IC50 [3]: ≥ 750000 nM

Sequence: MQFPGSVGF
Kd [4, 38]: 3640 nM
Kd [5, 39]: 429 nM
Kd [6, 38]: 769 nM
Kd [7, 39]: ≥ 5000 nM
Kd [8, 39]: ≥ 5000 nM
Kd [9, 39]: ≥ 5000 nM
Kd [10, 39]: 0.9 nM
Kd [11, 39]: 42.4 nM
Kd [12, 39]: 0.8 nM
Kd [13]: 1.2 nM

Kd [14]: ≥ 20000 nM
Kd [15]: ≥ 20000 nM
Kd [4, 40]: ≥ 20000 nM
Kd [16]: 64.2 nM
Kd [17]: ≥ 20000 nM
Kd [18]: ≥ 20000 nM
Kd [19]: ≥ 20000 nM
Kd [6, 40]: ≥ 20000 nM
Kd [20, 40]: ≥ 20000 nM
Kd [21, 40]: ≥ 20000 nM
Kd [22]: 5.86 nM
Kd [23]: ≥ 20000 nM
Kd [24]: ≥ 20000 nM
Kd [25]: ≥ 20000 nM
Kd [26]: ≥ 20000 nM
Sequence: RRRIGEIFK

Kd ([27]; source organism: Homo sapiens): 397 nM
Kd ([7]; source organism: Homo sapiens): ≥ 5000 nM
Kd ([8]; source organism: Homo sapiens): ≥ 5000 nM
Kd ([9]; source organism: Homo sapiens): ≥ 5000 nM
Kd [28]: 3790 nM
Kd ([29]; source organism: Homo sapiens): 208 nM
Sequence: VMAPRTLIL

Sequence: YLRNAGAAM
Kd [30]: ≥ 20000 nM
Kd [31, 41]: 3620 nM
Kd [32, 41]: 3590 nM
Kd ([20]; source organism: Salmonella enterica): 1.3 nM
Kd ([21]; source organism: Salmonella enterica subsp. enterica serovar Typhimurium str. LT2): 31 nM
Kd [7, 42]: ≥ 5000 nM
Kd [8, 42]: ≥ 5000 nM
Kd [9, 42]: ≥ 5000 nM
Kd [12, 42]: 186 nM
Kd [33]: 54.7 nM
Kd [29, 42]: 3.6 nM

Sequence: YTIYGAWMF
Kd [32, 43]: 1730 nM
Kd [27, 43]: 1200 nM
Kd [7, 43]: ≥ 5000 nM
Kd [8, 43]: ≥ 5000 nM
Kd [9, 43]: ≥ 5000 nM
Kd [10, 43]: 397 nM
Kd [11, 43]: 0.6 nM
Kd [34, 43]: 0.6 nM
Kd [35]: 79.6 nM
Kd [29, 43]: 347 nM

Kd ([31]; source organism: Homo sapiens): 14 nM
Kd ([5]; source organism: Homo sapiens): ≤ 1 nM
Kd ([27]; source organism: Homo sapiens): 283 nM
Kd ([7]; source organism: Homo sapiens): ≥ 5000 nM
Kd ([8]; source organism: Homo sapiens): ≥ 5000 nM
Kd ([9]; source organism: Homo sapiens): ≥ 5000 nM
Kd [36]: ≥ 20000 nM
Kd ([34]; source organism: Homo sapiens): ≤ 0.1 nM
Kd [37]: ≥ 5000 nM
Sequence: YYWPRPRRY
